# Data: article PMC3949526, “The structure of an authentic spore photoproduct lesion in DNA suggests a basis for recognition”
# Tests used:
# [1] = biological target: T1, N-terminal fragment of MMLV reverse transcriptase (fingers and palm domains) (Moloney murine leukemia virus, UniProt P03355 683-937); experiment: X-ray crystallography (1.72 A); host-guest complex; undamaged DNA; Crystallization: protein 2 mM in 50 mM MES pH 6.0, 0.3 M NaCl, 1 mM DTT; DNA 2.5 mM duplex in 10 mM HEPES pH 7.0, 10 mM MgCl2; crystallization buffer and temperature not given in the material; conditions: protein: recombinant; tags: 6xHis tag removed with thrombin; chain copies: 2; blunt; self-complementary, 2 copies of one strand
# T1 sequence (P03355 683-937): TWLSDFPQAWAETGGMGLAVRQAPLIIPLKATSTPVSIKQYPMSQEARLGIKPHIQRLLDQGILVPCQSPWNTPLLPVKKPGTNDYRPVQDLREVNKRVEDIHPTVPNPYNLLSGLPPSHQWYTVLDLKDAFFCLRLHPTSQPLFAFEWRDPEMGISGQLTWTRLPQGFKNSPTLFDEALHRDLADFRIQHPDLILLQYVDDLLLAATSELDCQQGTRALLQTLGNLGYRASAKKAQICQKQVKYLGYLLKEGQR
# [2] = biological target: T1, N-terminal fragment of MMLV reverse …; experiment: X-ray crystallography (2.14 A); host-guest complex; SP lesions in central 10 bp, free of protein contacts; Crystallization: protein 2 mM in 50 mM MES pH 6.0, 0.3 M NaCl, 1 mM DTT; DNA 2.5 mM duplex in 10 mM HEPES pH 7.0, 10 mM MgCl2; crystallization buffer and temperature not given in the material; conditions: protein: recombinant; tags: 6xHis tag removed with thrombin; chain copies: 2; blunt; self-complementary, 2 copies of one strand
Binder,binding result [1],binding result [2]
non-SP DNA 16-mer (dsDNA) DNA 1: ATCCGTTATAACGGAT DNA 2: ATCCGTTATAACGGAT,binds,
"SP DNA 16-mer (dsDNA, spore photoproduct (5-thyminyl-5,6-dihydrothymine) linking T6 and T7 in each strand) DNA 1: ATCCGTTATAACGGAT DNA 2: ATCCGTTATAACGGAT",,binds
